Numbered stars: 1 amine (or outer) side, 2 acyl side, 3 side chain; on linkers, the order of the positions; unused ones are H or OH. Square brackets hold non-standard residues; d marks the D form. Asp(NHBzl) = N-omega-benzylasparagine, O=C(C[C@H](N[*:1])C(=O)[*:2])NCc1ccccc1; Phe(3-Me) = Cc1cccc(C[C@H](N)C(=O)O)c1; Phe(4-Me) = Cc1ccc(C[C@H](N)C(=O)O)cc1; Phe(2-Me) = Cc1ccccc1C[C@H](N)C(=O)O; Arg(Me) = CNC(=N)NCCC[C@H](N)C(=O)O; Ala(cPr) = N[C@@H](CC1CC1)C(=O)O; Hyp = O=C(O)[C@@H]1C[C@@H](O)CN1; αMeF = C[C@](N)(Cc1ccccc1)C(=O)O; Cit = NC(=O)NCCC[C@H](N)C(=O)O; Dab = NCC[C@H](N)C(=O)O; Dap = NC[C@H](N)C(=O)O; azaGly = NNC(=O)O
The binders below were run against human OT7T175 (metastin receptor) (human) (UniProt Q969F8) (assay: cell-based or functional assay).
Chain of human OT7T175 (metastin receptor) (human) (Q969F8 whole entry L364H): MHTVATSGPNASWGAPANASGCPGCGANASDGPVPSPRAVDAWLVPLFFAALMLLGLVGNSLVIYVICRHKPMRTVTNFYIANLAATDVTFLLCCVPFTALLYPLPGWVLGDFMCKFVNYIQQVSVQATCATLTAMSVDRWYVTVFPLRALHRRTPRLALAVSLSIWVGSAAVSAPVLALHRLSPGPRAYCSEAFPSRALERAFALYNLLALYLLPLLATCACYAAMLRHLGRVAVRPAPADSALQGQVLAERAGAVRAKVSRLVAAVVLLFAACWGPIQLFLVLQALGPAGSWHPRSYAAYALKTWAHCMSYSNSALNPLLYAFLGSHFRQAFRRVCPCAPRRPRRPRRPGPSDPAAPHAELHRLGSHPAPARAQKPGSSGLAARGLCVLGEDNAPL

intracellular Ca ion level-increasing activity [specific activity to Metastin (1-54)] (relative to Metastin (1-54)) | Binder
0.6 | Ac-[dY][Hyp]NTF[azaGly][Ala(cPr)][Arg(Me)]W-NH2 (SMILES CNC(=N)NCCC[C@H](NC(=O)[C@H](CC1CC1)NC(=O)NNC(=O)[C@H](Cc1ccccc1)NC(=O)[C@@H](NC(=O)[C@H](CC(N)=O)NC(=O)[C@@H]1C[C@@H](O)CN1C(=O)[C@@H](Cc1ccc(O)cc1)NC(C)=O)[C@@H](C)O)C(=O)N[C@@H](Cc1c[nH]c2ccccc12)C(N)=O) [des(1)-Ac-[D-Tyr2,Hyp3,Thr5,AzaGly7,Ala(cPr)8,Arg(Me)9,Trp10]MS10]
0.8 | Ac-[dY][Hyp]QTF[azaGly]L[Arg(Me)]W-NH2 (SMILES CNC(=N)NCCC[C@H](NC(=O)[C@H](CC(C)C)NC(=O)NNC(=O)[C@H](Cc1ccccc1)NC(=O)[C@@H](NC(=O)[C@H](CCC(N)=O)NC(=O)[C@@H]1C[C@@H](O)CN1C(=O)[C@@H](Cc1ccc(O)cc1)NC(C)=O)[C@@H](C)O)C(=O)N[C@@H](Cc1c[nH]c2ccccc12)C(N)=O) [des(1)-Ac-[D-Tyr2,Hyp3,Gln4,Thr5,AzaGly7,Arg(Me)9,Trp10]MS10]
0.7 | Ac-[dY][Hyp]GTF[azaGly]L[Arg(Me)]W-NH2 (SMILES CNC(=N)NCCC[C@H](NC(=O)[C@H](CC(C)C)NC(=O)NNC(=O)[C@H](Cc1ccccc1)NC(=O)[C@@H](NC(=O)CNC(=O)[C@@H]1C[C@@H](O)CN1C(=O)[C@@H](Cc1ccc(O)cc1)NC(C)=O)[C@@H](C)O)C(=O)N[C@@H](Cc1c[nH]c2ccccc12)C(N)=O) [des(1)-Ac-[D-Tyr2,Hyp3,Gly4,Thr5,AzaGly7,Arg(Me)9,Trp10]MS10]
0.5 | Ac-[dY][Hyp]NGF[azaGly]L[Arg(Me)]W-NH2 (SMILES CNC(=N)NCCC[C@H](NC(=O)[C@H](CC(C)C)NC(=O)NNC(=O)[C@H](Cc1ccccc1)NC(=O)CNC(=O)[C@H](CC(N)=O)NC(=O)[C@@H]1C[C@@H](O)CN1C(=O)[C@@H](Cc1ccc(O)cc1)NC(C)=O)C(=O)N[C@@H](Cc1c[nH]c2ccccc12)C(N)=O) [des(1)-Ac-[D-Tyr2,Hyp3,Gly5,AzaGly7,Arg(Me)9,Trp10]MS10]
0.7 | Ac-[dY][Hyp]NT[Phe(3-Me)][azaGly]L[Arg(Me)]W-NH2 (SMILES CNC(=N)NCCC[C@H](NC(=O)[C@H](CC(C)C)NC(=O)NNC(=O)[C@H](Cc1cccc(C)c1)NC(=O)[C@@H](NC(=O)[C@H](CC(N)=O)NC(=O)[C@@H]1C[C@@H](O)CN1C(=O)[C@@H](Cc1ccc(O)cc1)NC(C)=O)[C@@H](C)O)C(=O)N[C@@H](Cc1c[nH]c2ccccc12)C(N)=O) [des(1)-Ac-[D-Tyr2,Hyp3,Thr5,Phe(3Me)6,AzaGly7,Arg(Me)9,Trp10]MS10]
1.1 | Ac-[dY][Hyp]HTF[azaGly]L[Arg(Me)]W-NH2 (SMILES CNC(=N)NCCC[C@H](NC(=O)[C@H](CC(C)C)NC(=O)NNC(=O)[C@H](Cc1ccccc1)NC(=O)[C@@H](NC(=O)[C@H](Cc1c[nH]cn1)NC(=O)[C@@H]1C[C@@H](O)CN1C(=O)[C@@H](Cc1ccc(O)cc1)NC(C)=O)[C@@H](C)O)C(=O)N[C@@H](Cc1c[nH]c2ccccc12)C(N)=O) [des(1)-Ac-[D-Tyr2,Hyp3,His4,Thr5,AzaGly7,Arg(Me)9,Trp10]MS10]
1.5 | Ac-[dY][Hyp]N[Hyp]F[azaGly]L[Arg(Me)]W-NH2 (SMILES CNC(=N)NCCC[C@H](NC(=O)[C@H](CC(C)C)NC(=O)NNC(=O)[C@H](Cc1ccccc1)NC(=O)[C@@H]1C[C@@H](O)CN1C(=O)[C@H](CC(N)=O)NC(=O)[C@@H]1C[C@@H](O)CN1C(=O)[C@@H](Cc1ccc(O)cc1)NC(C)=O)C(=O)N[C@@H](Cc1c[nH]c2ccccc12)C(N)=O) [des(1)-Ac-[D-Tyr2,Hyp3,Hyp5,AzaGly7,Arg(Me)9,Trp10]MS10]
1.4 | Ac-[dY][Hyp]NT[αMeF][azaGly]L[Arg(Me)]W-NH2 (SMILES CNC(=N)NCCC[C@H](NC(=O)[C@H](CC(C)C)NC(=O)NNC(=O)[C@](C)(Cc1ccccc1)NC(=O)[C@@H](NC(=O)[C@H](CC(N)=O)NC(=O)[C@@H]1C[C@@H](O)CN1C(=O)[C@@H](Cc1ccc(O)cc1)NC(C)=O)[C@@H](C)O)C(=O)N[C@@H](Cc1c[nH]c2ccccc12)C(N)=O) [des(1)-Ac-[D-Tyr2,Hyp3,Thr5,αMePhe6,AzaGly7,Arg(Me)9,Trp10]MS10]
0.6 | Ac-[dY][Hyp]NT[Phe(2-Me)][azaGly]L[Arg(Me)]W-NH2 (SMILES CNC(=N)NCCC[C@H](NC(=O)[C@H](CC(C)C)NC(=O)NNC(=O)[C@H](Cc1ccccc1C)NC(=O)[C@@H](NC(=O)[C@H](CC(N)=O)NC(=O)[C@@H]1C[C@@H](O)CN1C(=O)[C@@H](Cc1ccc(O)cc1)NC(C)=O)[C@@H](C)O)C(=O)N[C@@H](Cc1c[nH]c2ccccc12)C(N)=O) [des(1)-Ac-[D-Tyr2,Hyp3,Thr5,Phe(2Me)6,AzaGly7,Arg(Me)9,Trp10]MS10]
0.9 | Ac-[dY][Hyp][Dap]TF[azaGly]L[Arg(Me)]W-NH2 (SMILES CNC(=N)NCCC[C@H](NC(=O)[C@H](CC(C)C)NC(=O)NNC(=O)[C@H](Cc1ccccc1)NC(=O)[C@@H](NC(=O)[C@H](CN)NC(=O)[C@@H]1C[C@@H](O)CN1C(=O)[C@@H](Cc1ccc(O)cc1)NC(C)=O)[C@@H](C)O)C(=O)N[C@@H](Cc1c[nH]c2ccccc12)C(N)=O) [des(1)-Ac-[D-Tyr2,Hyp3,Dap4,Thr5,AzaGly7,Arg(Me)9,Trp10]MS10]
0.8 | Ac-[dY][Hyp]NT[Phe(4-Me)][azaGly]L[Arg(Me)]W-NH2 (SMILES CNC(=N)NCCC[C@H](NC(=O)[C@H](CC(C)C)NC(=O)NNC(=O)[C@H](Cc1ccc(C)cc1)NC(=O)[C@@H](NC(=O)[C@H](CC(N)=O)NC(=O)[C@@H]1C[C@@H](O)CN1C(=O)[C@@H](Cc1ccc(O)cc1)NC(C)=O)[C@@H](C)O)C(=O)N[C@@H](Cc1c[nH]c2ccccc12)C(N)=O) [des(1)-Ac-[D-Tyr2,Hyp3,Thr5,Phe(4Me)6,AzaGly7,Arg(Me)9,Trp10]MS10]

The next lines start with the binder.

Binder | intracellular Ca ion level-increasing activity [specific activity to Metastin (1-54)] (relative to Metastin (1-54))
Ac-[dY][Hyp]RTF[azaGly]L[Arg(Me)]W-NH2 (SMILES CNC(=N)NCCC[C@H](NC(=O)[C@H](CC(C)C)NC(=O)NNC(=O)[C@H](Cc1ccccc1)NC(=O)[C@@H](NC(=O)[C@H](CCCNC(=N)N)NC(=O)[C@@H]1C[C@@H](O)CN1C(=O)[C@@H](Cc1ccc(O)cc1)NC(C)=O)[C@@H](C)O)C(=O)N[C@@H](Cc1c[nH]c2ccccc12)C(N)=O) [des(1)-Ac-[D-Tyr2,Hyp3,Arg4,Thr5,AzaGly7,Arg(Me)9,Trp10]MS10] | 1.4
Ac-[dY][Hyp][Dab]TF[azaGly]L[Arg(Me)]W-NH2 (SMILES CNC(=N)NCCC[C@H](NC(=O)[C@H](CC(C)C)NC(=O)NNC(=O)[C@H](Cc1ccccc1)NC(=O)[C@@H](NC(=O)[C@H](CCN)NC(=O)[C@@H]1C[C@@H](O)CN1C(=O)[C@@H](Cc1ccc(O)cc1)NC(C)=O)[C@@H](C)O)C(=O)N[C@@H](Cc1c[nH]c2ccccc12)C(N)=O) [des(1)-Ac-[D-Tyr2,Hyp3,Dab4,Thr5,AzaGly7,Arg(Me)9,Trp10]MS10] | 1
Ac-[dY][Hyp]NAF[azaGly]L[Arg(Me)]W-NH2 (SMILES CNC(=N)NCCC[C@H](NC(=O)[C@H](CC(C)C)NC(=O)NNC(=O)[C@H](Cc1ccccc1)NC(=O)[C@H](C)NC(=O)[C@H](CC(N)=O)NC(=O)[C@@H]1C[C@@H](O)CN1C(=O)[C@@H](Cc1ccc(O)cc1)NC(C)=O)C(=O)N[C@@H](Cc1c[nH]c2ccccc12)C(N)=O) [des(1)-Ac-[D-Tyr2,Hyp3,Ala5,AzaGly7,Arg(Me)9,Trp10]MS10] | 0.5
{4‑ureidobenzoyl}-F[azaGly]L[Arg(Me)]W-NH2 [des(1-5)-4-Ureidobenzoyl-[AzaGly7,Arg(Me)9,Trp10]MS10] | 1.3
Ac-[dY][dW][Asp(NHBzl)]TF[azaGly]L[Arg(Me)]W-NH2 (SMILES CNC(=N)NCCC[C@H](NC(=O)[C@H](CC(C)C)NC(=O)NNC(=O)[C@H](Cc1ccccc1)NC(=O)[C@@H](NC(=O)[C@H](CC(=O)NCc1ccccc1)NC(=O)[C@@H](Cc1c[nH]c2ccccc12)NC(=O)[C@@H](Cc1ccc(O)cc1)NC(C)=O)[C@@H](C)O)C(=O)N[C@@H](Cc1c[nH]c2ccccc12)C(N)=O) [des(1)-Ac-[D-Tyr2,D-Trp3,Asp(NHBzl)4,Thr5,AzaGly7,Arg(Me)9,Trp10]MS10] | 3.6
Ac-[dY][Hyp]N[dA]F[azaGly]L[Arg(Me)]W-NH2 (SMILES CNC(=N)NCCC[C@H](NC(=O)[C@H](CC(C)C)NC(=O)NNC(=O)[C@H](Cc1ccccc1)NC(=O)[C@@H](C)NC(=O)[C@H](CC(N)=O)NC(=O)[C@@H]1C[C@@H](O)CN1C(=O)[C@@H](Cc1ccc(O)cc1)NC(C)=O)C(=O)N[C@@H](Cc1c[nH]c2ccccc12)C(N)=O) [des(1)-Ac-[D-Tyr2,Hyp3,D-Ala5,AzaGly7,Arg(Me)9,Trp10]MS10] | 0.5
Ac-[dY][Hyp][Cit]TF[azaGly]L[Arg(Me)]W-NH2 (SMILES CNC(=N)NCCC[C@H](NC(=O)[C@H](CC(C)C)NC(=O)NNC(=O)[C@H](Cc1ccccc1)NC(=O)[C@@H](NC(=O)[C@H](CCCNC(N)=O)NC(=O)[C@@H]1C[C@@H](O)CN1C(=O)[C@@H](Cc1ccc(O)cc1)NC(C)=O)[C@@H](C)O)C(=O)N[C@@H](Cc1c[nH]c2ccccc12)C(N)=O) [des(1)-Ac-[D-Tyr2,Hyp3,Cit4,Thr5,AzaGly7,Arg(Me)9,Trp10]MS10] | 1
Ac-[dY][Hyp]N[dT]F[azaGly]L[Arg(Me)]W-NH2 [des(1)-Ac-[D-Tyr2,Hyp3,D-Thr5,AzaGly7,Arg(Me)9,Trp10]MS10] | 0.9
Ac-[dY][Hyp][dN]TF[azaGly]L[Arg(Me)]W-NH2 [des(1)-Ac-[D-Tyr2,Hyp3,D-Asn4,Thr5,AzaGly7,Arg(Me)9,Trp10]MS10] | 0.9

From patent US20090105152A1
